{"source": "patent US20220204930A1", "about": "(KITE PHARMA, published 2022)", "binders": {"B1": {"name": "anti-PSMA CAR with Ab2 scFv (other)", "chain": "DIQMTQSPSSLSASVGDRVTVTCRASQNVNTNVAWYQQKPGKAPKVLIYSASYRNSGVPSRFSGSGSGTDFTLTISSVQPEDFATYYCQQYNSYPFTFGQGTKLEIKGSTSGSGKPGSGEGSTKGQVQLVQSGAEVKKPGASVKLSCKASGYTFTTYWMHWVRQAPGQGLEWIGMIHPNSGSTNYAQKFQGRATLTVDTSTSTAYMELSSLRSEDTAVYYCARDPYDYGEDFDVWGQGTTVTVSS", "notes": "Chimeric antigen receptor on the surface of transduced human T cells, expressed from the GAL4-inducible payload vector; also called construct 202; Ab6 SynNotch/202; not shown: CD8a hinge, CD8a transmembrane, 4-1BB and CD3zeta domains"}, "B2": {"name": "anti-PSMA CAR with Ab3 scFv (other)", "chain": "EVQLVESGGGLVQPGGSMRLSCAASGFTFSDYYMAWVRQAPGKGLEWVANINYDGTSTYYADSLKGRFTISRDSSKNTLYLQMNSLRAEDTAVYYCARALDGYYGYLDVWGQGTTVTVSSGSTSGSGKPGSGEGSTKGDIQLTQSPSSLSASVGDRVTLTCRASQSISNNLHWYQQKPGKAPKLLIKYVSQSISGIPSRFSGSGLGTDFTLTISSVQPEDFATYYCQQSNSWPYTFGQGTKLEIK", "notes": "Chimeric antigen receptor on the surface of transduced human T cells; Constructs 103 (constitutive) and 203 (inducible payload) are treated as the same CAR protein; also called construct 103; construct 203; not shown: CD8a hinge, CD8a transmembrane, 4-1BB and CD3zeta domains"}, "B3": {"name": "anti-PSMA CAR with Ab1 scFv (other)", "chain": "DIQLTQSPSSLSASVGDRVTITCRASSSVSHIYWYQQKPGKAPKPWIYRTSNLASGVPSRFSGSGSGTDYTLTISSLQPEDFATYYCQQYHTYPPTFGQGTKLEIKGSTSGSGKPGSGEGSTKGEVQLVESGGGLVQPGGSMRLSCAASGFTFSDYYMAWVRQAPGKGLEWIANINYDGSNTYYADSLKGRFTISRDNSKNTLYLQMNSLRAEDTAVYYCARNWDGYYGYFDVWGQGTTVTVSS", "notes": "Chimeric antigen receptor on the surface of transduced human T cells; Construct 101 is the constitutive EF1a vector and 201 the GAL4-inducible payload vector; also called Abl; construct 101; not shown: CD8a hinge, CD8a transmembrane, 4-1BB and CD3zeta domains"}}, "key": {"[1]": {"target": "T1, recombinant PSMA (rPSMA) containing a 6x His tag (human, UniProt Q04609 44-750)", "T1 construct": "Soluble staining reagent, detected with an anti-His antibody; also called prostate-specific membrane antigen", "T1 sequence (Q04609 other isoform, or with tags, fused parts or gaps limits assumed)": "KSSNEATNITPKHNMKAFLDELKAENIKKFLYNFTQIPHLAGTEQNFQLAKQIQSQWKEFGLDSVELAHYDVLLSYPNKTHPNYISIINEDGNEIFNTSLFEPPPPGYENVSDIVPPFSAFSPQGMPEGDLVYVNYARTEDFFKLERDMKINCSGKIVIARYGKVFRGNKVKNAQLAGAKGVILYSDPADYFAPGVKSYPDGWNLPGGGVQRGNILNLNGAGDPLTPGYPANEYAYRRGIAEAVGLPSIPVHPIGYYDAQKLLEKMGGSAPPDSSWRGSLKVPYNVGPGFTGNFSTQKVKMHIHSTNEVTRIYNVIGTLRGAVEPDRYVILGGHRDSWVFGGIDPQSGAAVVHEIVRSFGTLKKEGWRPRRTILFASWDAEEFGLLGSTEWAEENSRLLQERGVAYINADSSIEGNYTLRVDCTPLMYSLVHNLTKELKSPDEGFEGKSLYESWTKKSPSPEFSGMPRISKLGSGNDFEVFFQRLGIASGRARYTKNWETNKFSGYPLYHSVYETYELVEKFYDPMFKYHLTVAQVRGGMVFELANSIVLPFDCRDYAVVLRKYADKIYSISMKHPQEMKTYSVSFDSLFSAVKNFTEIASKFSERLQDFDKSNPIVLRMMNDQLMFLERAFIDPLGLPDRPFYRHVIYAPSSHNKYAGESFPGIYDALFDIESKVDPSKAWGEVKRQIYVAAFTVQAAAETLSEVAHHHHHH", "test": "flow cytometry, rPSMA-6xHis + anti-His; synNotch/CAR-payload T cells without myc beads (CAR not induced); donor #3", "protocol": "(§1) Seven days after transduction, T cells transduced as described in example 1 were harvested to determine transduction efficiencies. 1.5×10⁵ T cells were plated in 96 well plates in duplicate. For canonical CAR T cells, T cells were cultured overnight in hTCM (human T cell media), that included of x-vivo 15 (Lonza (Basel, Switzerland)), 5% human serum (Valley Biomedical (Winchester, Va.)), and 1% Glutamax (Gibco). For synNotch T receptor expressing cells, the T cells were cultured in the presence and absence of myc beads overnight to stimulate the synNotch receptor and therebyinduce CAR expression. After overnight culture, CAR expression was measured using recombinant PSMA (rPSMA) containing a 6× His tag (SEQ ID NO: 260). The cells were stained with an anti-His antibody and the stained cells were detected via flow cytometry. Only cells bound by the rPSMA (and anti-His) are detected to measure expression."}, "[2]": {"target": "T1, recombinant PSMA (rPSMA) containing a …", "test": "flow cytometry, rPSMA-6xHis + anti-His; synNotch/CAR-payload T cells without myc beads (CAR not induced); donor #1"}, "[3]": {"target": "T1, recombinant PSMA (rPSMA) containing a …", "test": "flow cytometry of canonical CAR T cells stained with rPSMA-6xHis and anti-His; donor #1", "protocol": "as §1"}}, "data": [{"binder": "B1", "values": [{"measurement": "% CAR+ (Unstimulated)", "setting": "[1]", "result": 1.4, "unit": "%"}]}, {"binder": "B2", "values": [{"measurement": "% CAR+ (Unstimulated)", "setting": "[2]", "result": 3.2, "unit": "%"}, {"measurement": "% CAR+ (Unstimulated)", "setting": "[1]", "result": 4.6, "unit": "%"}]}, {"binder": "B3", "values": [{"measurement": "% CAR+ (Unstimulated)", "setting": "[2]", "result": 3.7, "unit": "%"}, {"measurement": "% CAR+", "setting": "[3]", "result": 95.4, "unit": "%"}, {"measurement": "% CAR+ (Unstimulated)", "setting": "[1]", "result": 6.2, "unit": "%"}]}]}
